# Results from PMC3146519, “Highly Efficient Production of Soluble Proteins from Insoluble Inclusion Bodies by a Two-Step-Denaturing and Refolding Method”.
# B1: NRSE/RE1 dsDNA (dsDNA)
# DNA 1: TTCAGCACCACGGACAGCGCC
# DNA 2: GGCGCTGTCCGTGGTGCTGAA
# Biological target: T1, NRSF/REST DBD (refolded by 2DR) (UniProt Q13127 159-412)
# T1 sequence: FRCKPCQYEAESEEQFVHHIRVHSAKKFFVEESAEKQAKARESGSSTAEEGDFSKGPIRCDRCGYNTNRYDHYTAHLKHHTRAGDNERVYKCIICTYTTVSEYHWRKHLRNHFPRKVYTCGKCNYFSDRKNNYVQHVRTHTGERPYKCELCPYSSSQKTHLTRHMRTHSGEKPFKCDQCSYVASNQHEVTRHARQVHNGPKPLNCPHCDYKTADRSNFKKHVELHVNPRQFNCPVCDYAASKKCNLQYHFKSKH
# Experiment: EMSA; 0.1 mM ZnCl2; DBD:DNA 0:1 to 3:1, 75 pmol DNA in 20 ul; 10 mM Tris pH 7.0, 0.1 mM ZnCl2, 20 ul, 30 min at room temperature; 5% native PAGE, EtBr stain
# Conditions: protein: recombinant; label: none (EtBr stain); blunt
binder,measurement,value
B1,binding result,binds
